For this assay, the target named is importin β1 (mouse (endogenous in 3T6)) (UniProt P70168). Nature of the assay: proximity ligation.
Chain of importin β1 (mouse (endogenous in 3T6)) (P70168 whole entry): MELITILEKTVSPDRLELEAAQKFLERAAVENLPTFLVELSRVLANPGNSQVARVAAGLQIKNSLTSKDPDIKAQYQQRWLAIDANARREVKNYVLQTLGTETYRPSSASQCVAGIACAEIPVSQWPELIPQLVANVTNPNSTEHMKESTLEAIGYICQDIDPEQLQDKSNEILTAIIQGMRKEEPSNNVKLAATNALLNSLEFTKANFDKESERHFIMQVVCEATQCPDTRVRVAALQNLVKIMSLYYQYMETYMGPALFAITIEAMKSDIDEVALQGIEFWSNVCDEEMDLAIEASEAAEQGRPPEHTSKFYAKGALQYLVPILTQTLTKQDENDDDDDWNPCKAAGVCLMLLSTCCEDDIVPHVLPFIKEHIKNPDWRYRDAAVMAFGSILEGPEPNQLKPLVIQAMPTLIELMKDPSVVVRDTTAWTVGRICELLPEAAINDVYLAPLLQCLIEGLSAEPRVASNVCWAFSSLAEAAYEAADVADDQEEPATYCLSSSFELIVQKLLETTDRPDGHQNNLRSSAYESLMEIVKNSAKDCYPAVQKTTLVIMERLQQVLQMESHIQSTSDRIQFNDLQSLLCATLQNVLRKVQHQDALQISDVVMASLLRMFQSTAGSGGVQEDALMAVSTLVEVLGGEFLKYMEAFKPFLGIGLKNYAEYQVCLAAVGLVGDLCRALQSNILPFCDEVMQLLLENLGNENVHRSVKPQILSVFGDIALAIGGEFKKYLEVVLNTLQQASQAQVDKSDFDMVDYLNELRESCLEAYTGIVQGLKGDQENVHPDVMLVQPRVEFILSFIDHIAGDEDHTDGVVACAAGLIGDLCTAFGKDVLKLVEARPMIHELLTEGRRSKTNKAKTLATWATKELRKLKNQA

Chain of wild type mouse polyomavirus (MPyV) virions, strain A3 (capsid proteins VP1, VP2 and VP3) (P03097 whole entry, looked up): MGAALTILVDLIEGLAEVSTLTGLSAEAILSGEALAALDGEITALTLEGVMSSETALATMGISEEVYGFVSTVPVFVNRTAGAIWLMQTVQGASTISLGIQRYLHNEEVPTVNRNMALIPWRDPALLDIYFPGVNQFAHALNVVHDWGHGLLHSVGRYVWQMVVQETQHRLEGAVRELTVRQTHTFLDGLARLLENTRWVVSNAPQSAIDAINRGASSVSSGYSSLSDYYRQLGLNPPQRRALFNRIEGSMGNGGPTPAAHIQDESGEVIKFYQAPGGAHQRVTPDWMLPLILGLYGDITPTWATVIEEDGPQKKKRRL
Chain of wild type mouse polyomavirus (MPyV) virions, strain A3 (capsid proteins VP1, VP2 and VP3) (P03091 whole entry, looked up): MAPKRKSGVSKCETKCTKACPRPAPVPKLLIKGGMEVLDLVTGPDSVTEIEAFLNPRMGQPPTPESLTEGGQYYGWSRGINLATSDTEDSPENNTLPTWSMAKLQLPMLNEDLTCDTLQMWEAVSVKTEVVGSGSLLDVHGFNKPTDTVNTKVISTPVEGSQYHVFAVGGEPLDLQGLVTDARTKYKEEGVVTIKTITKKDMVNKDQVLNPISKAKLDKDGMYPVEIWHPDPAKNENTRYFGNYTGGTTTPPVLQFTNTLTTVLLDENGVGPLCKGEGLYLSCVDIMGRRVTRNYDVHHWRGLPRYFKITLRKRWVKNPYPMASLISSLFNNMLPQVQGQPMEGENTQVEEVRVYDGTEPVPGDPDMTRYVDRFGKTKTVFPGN

For the substance “wild type mouse polyomavirus (MPyV) virions, strain A3 (capsid proteins VP1, VP2 and VP3) (from UniProt P03091;P03097) (complex)”, the PLA spots per 50 cells (spots per 50 cells) is more than 1000.
